PMC4990422, “Coupling between the DEAD-box RNA helicases Ded1p and eIF4A” (eLife, 2016)

Legend:
eIF4G = target: T1, eIF4G (S. cerevisiae, UniProt P39935 1-952; P07260 1-213); assay: global fit of RNA unwinding time courses to a thermodynamic model; K1/2 of a binding step calculated with the model of Figure 4A; RNA bound to the target before the step, no ATP; conditions: both partners purified
T1 construct: eIF4G1, scaffolding protein of translation initiation, S. cerevisiae; present in the preparations of eIF4G; the model treats G as one unit; also called eIF4G1; S•Tag-eIF4G; source: recombinant, expression and purification previously described (Hilliker et al., 2011)
T1 sequence (looked up) 1: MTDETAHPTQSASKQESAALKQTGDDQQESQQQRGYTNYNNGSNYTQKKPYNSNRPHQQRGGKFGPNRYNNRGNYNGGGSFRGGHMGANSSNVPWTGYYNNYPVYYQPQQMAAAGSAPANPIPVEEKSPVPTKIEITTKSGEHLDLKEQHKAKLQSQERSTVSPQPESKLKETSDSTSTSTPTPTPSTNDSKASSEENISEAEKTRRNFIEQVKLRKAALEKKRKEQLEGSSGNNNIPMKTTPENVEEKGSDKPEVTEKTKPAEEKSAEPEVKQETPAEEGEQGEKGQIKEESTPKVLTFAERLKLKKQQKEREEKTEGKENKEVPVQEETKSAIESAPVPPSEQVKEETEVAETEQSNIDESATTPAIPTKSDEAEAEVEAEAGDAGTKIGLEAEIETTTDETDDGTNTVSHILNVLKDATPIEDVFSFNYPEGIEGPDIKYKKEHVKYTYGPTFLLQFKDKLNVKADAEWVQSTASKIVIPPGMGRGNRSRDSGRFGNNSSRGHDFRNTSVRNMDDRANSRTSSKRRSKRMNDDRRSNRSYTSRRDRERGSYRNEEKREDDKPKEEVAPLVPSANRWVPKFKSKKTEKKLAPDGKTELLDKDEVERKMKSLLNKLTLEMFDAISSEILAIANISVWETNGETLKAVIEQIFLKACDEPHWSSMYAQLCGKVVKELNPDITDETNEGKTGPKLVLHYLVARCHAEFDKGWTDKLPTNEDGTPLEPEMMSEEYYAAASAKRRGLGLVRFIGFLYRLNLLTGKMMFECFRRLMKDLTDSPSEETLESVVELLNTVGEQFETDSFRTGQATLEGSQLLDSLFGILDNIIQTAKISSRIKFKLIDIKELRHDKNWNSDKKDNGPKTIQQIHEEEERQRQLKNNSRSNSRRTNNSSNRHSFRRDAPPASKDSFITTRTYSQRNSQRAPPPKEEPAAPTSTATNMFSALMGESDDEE
T1 sequence (looked up) 2: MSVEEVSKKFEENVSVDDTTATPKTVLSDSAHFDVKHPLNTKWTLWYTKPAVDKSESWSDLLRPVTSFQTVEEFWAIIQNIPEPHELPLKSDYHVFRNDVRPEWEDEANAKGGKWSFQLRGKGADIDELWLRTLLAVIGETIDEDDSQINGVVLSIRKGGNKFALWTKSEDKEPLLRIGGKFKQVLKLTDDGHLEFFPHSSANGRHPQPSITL

Ded1p-eIF4G complex [1] = target: T2, Ded1p-eIF4G complex (S. cerevisiae, UniProt P06634 1-604; P39935 1-952; P07260 1-213); assay: as above; conditions: both partners purified
T2 construct: Ded1p, S. cerevisiae, wild type, as Wm1; eIF4G1, S. cerevisiae, as in Wm3; eIF4E, S. cerevisiae, as in Wm3; present in the preparations of eIF4G; State of the thermodynamic model; also called DG; DTG; source: formed from the purified recombinant proteins; copies: + +

[2] = target: HA-tagged Ded1p (His6-Ded1p-HA3) (S. cerevisiae), P06634; assay: pull-down; Ded1p-HA held on anti-HA antibody and Protein G Dynabeads; 300 nM S•Tag-eIF4G or 1500 nM eIF4A added alone; 20 µg/mL RNases A,B; 8°C overnight; washed with HRB-Na100 buffer; Western blot; conditions: remark: other sources report otherwise
Ded1p-eIF4G complex [3] = target: T2, Ded1p-eIF4G complex; assay: global fit of RNA unwinding time courses to a thermodynamic model; K1/2 of a binding step calculated with the model of Figure 4A; RNA bound to the binder before the step, ATP bound to Ded1p; conditions: both partners purified
[4] = target: Ded1p (wild type, N-terminal His6-tag) (S. cerevisiae), P06634; assay: cross-linking; formaldehyde 1% (v/v), 30 min, room temperature; Ded1p 0.3 µM, eIF4A 2 µM or as indicated, RNA 2 µM (16 bp, 25 nt 3'-overhang), 0.5 mM ADPNP-MgCl2, unwinding buffer; Western blot with α-Ded1p; conditions: remark: other sources report otherwise
Ded1p-eIF4G complex [5] = target: T2, Ded1p-eIF4G complex; assay: global fit of RNA unwinding time courses to a thermodynamic model; K1/2 of a binding step calculated with the model of Figure 4A; RNA bound to the binder before the step, ATP bound to Ded1p and to eIF4A; conditions: both partners purified

T2 sequence (P06634 whole entry, one chain of several): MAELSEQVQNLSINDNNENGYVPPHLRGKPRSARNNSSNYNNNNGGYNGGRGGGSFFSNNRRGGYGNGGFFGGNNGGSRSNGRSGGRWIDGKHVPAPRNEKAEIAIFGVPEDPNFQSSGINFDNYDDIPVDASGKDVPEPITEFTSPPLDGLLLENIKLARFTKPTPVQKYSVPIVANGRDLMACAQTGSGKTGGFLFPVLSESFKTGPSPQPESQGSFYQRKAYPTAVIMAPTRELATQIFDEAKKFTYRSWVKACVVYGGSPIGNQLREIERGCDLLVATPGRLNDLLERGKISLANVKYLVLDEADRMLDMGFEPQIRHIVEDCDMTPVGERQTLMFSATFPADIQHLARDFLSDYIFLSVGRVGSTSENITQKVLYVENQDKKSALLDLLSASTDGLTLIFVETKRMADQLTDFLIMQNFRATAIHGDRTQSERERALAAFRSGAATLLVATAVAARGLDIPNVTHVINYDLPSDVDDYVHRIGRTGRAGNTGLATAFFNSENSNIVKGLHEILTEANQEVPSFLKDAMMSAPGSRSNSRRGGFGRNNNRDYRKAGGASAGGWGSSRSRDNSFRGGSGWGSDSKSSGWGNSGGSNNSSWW
Chain of Ded1p (wild type, N-terminal His6-tag) (S. cerevisiae), P06634 (P06634 whole entry): as the sequence (P06634 whole entry, one chain of several) above
Chain of HA-tagged Ded1p (His6-Ded1p-HA3) (S. cerevisiae), P06634 (P06634 whole entry): as the sequence (P06634 whole entry, one chain of several) above

B1: eIF4A (enzyme, S. cerevisiae, UniProt P10081 1-395, looked up)
chain: MSEGITDIEESQIQTNYDKVVYKFDDMELDENLLRGVFGYGFEEPSAIQQRAIMPIIEGHDVLAQAQSGTGKTGTFSIAALQRIDTSVKAPQALMLAPTRELALQIQKVVMALAFHMDIKVHACIGGTSFVEDAEGLRDAQIVVGTPGRVFDNIQRRRFRTDKIKMFILDEADEMLSSGFKEQIYQIFTLLPPTTQVVLLSATMPNDVLEVTTKFMRNPVRILVKKDELTLEGIKQFYVNVEEEEYKYECLTDLYDSISVTQAVIFCNTRRKVEELTTKLRNDKFTVSAIYSDLPQQERDTIMKEFRSGSSRILISTDLLARGIDVQQVSLVINYDLPANKENYIHRIGRGGRFGRKGVAINFVTNEDVGAMRELEKFYSTQIEELPSDIATLLN
notes: eIF4A, DEAD-box RNA helicase, S. cerevisiae, wild type; also called wild-type yeast eIF4A; source: recombinant, purified as described (Hilliker et al., 2011)
B1 gave a Kd (eIF4G) of 1060 nM, a Kd (Ded1p-eIF4G complex [1]) of 7 nM and a relative band intensity (pull-down compared to input) [2] of 96%. For the same binder, the Kd (Ded1p-eIF4G complex [3]) was 0.006 nM, the stoichiometry N [4] was 1 and the Kd (Ded1p-eIF4G complex [5]) was 0.013 nM.
